In article PMC11626941, “FBLN7 mediates vascular smooth muscle cell phenotype switching and vascular remodeling in hypertension” (Theranostics, 2024):
Several values for one entry are separate records, joined by “and”; a condition that tells them apart may be missing. Equal entries are not always repeated.

Biological target: the molecule itself
Assay: immunoblot with non-reducing loading buffer; HEK293T transfected with varying concentrations of SDC4 plasmids; SDS-PAGE, positions of SDC4 tetramer, dimer and monomer

B1: Flag-tagged full-length mouse SDC4 (receptor, UniProt O35988 24-198, looked up)
chain: ESIRETEVIDPQDLLEGRYFSGALPDDEDAGGSDDFELSGSGDLDDTEEPRPFPEVIEPLVPLDNHIPENAQPGIRVPSEPKELEENEVIPKRAPSDVGDDMSNKVSMSSTAQGSNIFERTEVLAALIVGGVVGILFAVFLILLLVYRMKKKDEGSYDLGKKPIYKKAPTNEFYA
notes: Plasmids provided by GenePharma; Seen as monomer, dimer and tetramer bands on non-reducing blots; also called Flag-SDC4; Flag (SDC4); source: HEK293T, transfected (pcDNA 3.1), in lysate; not shown: Flag, C-terminal, kept
  stoichiometry N: 2 and 4
